Experimental data from the DeepSol protein solubility set.

Assay: soluble on expression in E. coli; label from the status in PepcDB or PDB records

Row | Sequence | soluble on expression in E. coli
1 | MAHHHHHHMVLITSNCARVAAFTRKAACSGALCDRHRCISGGGRGDLFTRHAGAFKPPAFGVLRGLTHSSQTTHPQTGQLQARKRIQHAMHDRTLSGSGHHRTAVATWSYLLHSLRQNVEQAVPDALYEKLLTDEVPLTPAESRQLADAHRLLRFELQKRIGLLEDSLADAALPYLLQWPALFQRAWLRLPMDQGRASVTEANHDAVVPAPPSFVHAPAALPVTEWAPTLSPASPPACSNGLIGRGALVPRLAQLTRHVIRCVEEDLGRLEHVSEPREDGVPRSRRQVALEAAWRAQWASLLTWHAGVSYGMG | soluble
2 | MAHHHHHHMVRKVWIGQGDVVLVSKRSFNKNDIVDVIHRYNPAEVRALVKDEVIPRDFRSSDERDAKNAHSDYVFVAENDDDGGADDDDQNVLDRNKVVLDDPLATFDEL | not soluble
3 | MAHHHHHHMWINKIGNKSASFINHKHFHPGNIKNLERVWLAEENEKKRKEEEEKYLKKREEQYKLYELKKQLRKNEEENKNDVHNILYDINNELKKENSFKKKILHNSISNETTPNENIVNKILIRSKYDEDIFLKNHRSIYGSYYDKEKNKWGFKCCTNIDKNSKCTNNTNCSYNLNNNLIKKDLTKSKNKKKKKKKLIVDNSITAVLNKI | not soluble
4 | MAHHHHHHMYFLGEERHFRVLSLSFGVRGLQGSVTSEAAKIQTQMALQQTAYSACSRKVHCVSKHYLDDPFVHFFSRDMTIVNSPLMNRGTWLRTVAIERSVLSFARNWSADGPLQVISFGSGVDTLYFRLKKDHSEVNIVRYIELDFPDLVAEKQRVIEKTERLNQLVGPEYELVPCDLQKPDELREILKRVARNDVPTVLLAEMVFVYLEERTTTAILELTLNDVLKRDMCVLLIAYDAIRPNDRFGEVMVNSLASSGVPLRGIKELPTPEAHAERCKRVGLKSVMATSMRQLYLSVPQETQEWLKKLEMVDDWDEWCIMHDHYCFVLATNKAEALPTIF | not soluble
5 | MAHHHHHHMYGGNFSIPEFILKHEKYEKERLKIKRNKYLKRNIYKDNYSFIYFIFLHNINEHVEITTNNFDLLKGQLEELKKNTNNHIKGIILKNVIKSNNNNYSYFSKLYIPITNIYTCMPDNICSREKNKNPESKPFCDLIVSGYKNQMMNKIYEKFKKLGNQYV | not soluble
6 | MAHHHHHHSLAKRIVGSTPKQDGFRMPGEFEPQEKVWMIWPERPDNWRDGGKPVQEAFTNVAKAISQFTPMNVVVSQQQFQNCRRQLPPEITVYEMSNNDAWVRDCGPSFVINDHGEIRGVDWTFNAWGGLVDGLYFPWDQDDLVAQKICEIEHVDSYRTDDFVLEGGSFHVDGQGTVLTTEMCLLSEGRNPQLSKEAIEQKLCDYLNVEKVLWLGDGIDPEETNGHVDDVACFIAPGEVACIYTEDQNSPFYEAAQDAYQRLLKMTDAKGRQLKVHKLCCPVKNVTIKGSFKIDFVEGTMPREDGDICIASYMNFLITNDGVIVPQYGDENDHLALEQVQTMFPDKKIVGVNTVEVVYGGGNIHCITQQEPKREG | not soluble
7 | MAHHHHHHSLNVLSVSSEIYPLIKTGGLADVVGALPIALEAHGVRTRTLIPGYPAVKAAVTDPVKCFEFTDLLGEKADLLEVQHERLDLLILDAPAYYERSGGPYLGQTGKDYPDNWKRFAALSLAAARIGAGVLPGWRPDMVHAHDWQAAMTPVYMRYAETPEIPSLLTIHNIAFQGQFGANIFSKLALPAHAFGMEGIEYYNDVSFLKGGLQTATALSTVSPSYAEEILTAEFGMGLEGVIGSRAHVLHGIVNGIDADVWNPATDHLIHDNYSAANLKNRALNKKAVAEHFRIDDDGSPLFCVISRLTWQKGIDLMAEAVDEIVSLGGRLVVLGAGDVALEGALLAAASRHHGRVGVAIGYNEPLSHLMQAGCDAIIIPSRFEPCGLTQLYALRYGCIPVVARTGGLADTVIDANHAALASKAATGVQFSPVTLDGLKQAIRRTVRYYHDPKLWTQMQKLGMKSDVSWEKSAGLYAALYSQLISKGHEG | not soluble
8 | MAHHHHHHVDDDDKMYQSAIKVEPASPPYYSEKTQLYNKPHEEPSNSLMAIECRVCGDKASGFHYGVHACEGCKGFFRRTIRLKLIYDRCDLNCRIHKKSRNKCQYCRFQKCLAVGMSHNAIRFGRMPQAEKEKLLAEISSDIDQLNPESADLRALAKHLYDSYIKSFPLTKAKARAILTGKTTDKSPFVIYDMNSLMMGEDKIKFKHITPLQEQSKEVAIRIFQGCQFRSVEAVQEITEYAKSIPGFVNLDLNDQVTLLKYGVHEIIYTMLASLMNKDGVLISEGQGFMTREFLKSLRKPFGDFMEPKFEFAVKFNALELDDSDLAIFIAVIILSGDRPGLLNVKPIEDIQDNLLQALELQLKLNHPESSQLFAKLLQKMTDLRQIVTEHVQLLQVIKKTETDMSLHPLLQEIYKDLY | soluble
9 | MAHMVNGKVALVTGAAQGIGRAFAEALLLKGAKVALVDWNLEAGVQCKAALHEQFEPQKTLFIQCDVADQQQLRDTFRKVVDHFGRLDILVNNAGVNNEKNWEKTLQINLVSVISGTYLGLDYMSKQNGGEGGIIINMSSLAGLMPVAQQPVYCASKHGIVGFTRSAALAANLMNSGVRLNAICPGFVNTAILESIEKEENMGQYIEYKDHIKDMIKYYGILDPPLIANGLITLIEDDALNGAIMKITTSKGIHFQDYGSKENLYFQ | soluble
10 | MAHVVVLGAGLGGSIMAYELHQQLRSEDRITVVTRDPTYHFVPSNPWVAVGWRTRSHISADLAPTMQRLGIAFRTVPATRLVPAENRVELADGTALDYDYLVVATGPELAFDEIEGFGPEGHTQSICHVDHAEAAHAAFERFCENPGPIVVGAAQGASCFGPAYEFAFILDAALRRRRIRDRVPMTFVTSEPYIGHLGLDGVGDTKGLLESALRSRHIKWITSARISRVEAGTMHVEEVAEGGATKPHALPFGYAMMLPAFRGVKAVSGIEGLSNPRGFTLVDPHQRNPTFPNIFAVGVCVAIPPMGVTPVPVGVPKTGFMIESMVTATAHNIGALVRGKEPDEVATWNAVCLADFGDRGIAFIAQPQIPPRNVNWSAEGRWVHFAKIAFEKYFLRKVKLGTAEPLYEWAAMKMLGIDKLKAARKGLEHHHHHH | not soluble
11 | MAIIGIDLGTTNSLVATWSEDGATLIPNVLGEFLTPSVVSVDETGEILVGRIAKERLITHPQLTAATFKRFIGTEKKYELGTYTFSSEELSSFVIKSLKQDAEAYLNEEVTGAVISVPAYFNDTQRKSTKRAAEIAGLTVERLISEPTAAAIAYGLYQEESETKFLVFDLGGGTFDVSILELFEGIMDVKSIAGDNYLGGEDFTRSLMTFFLESHQLDPDSLDSKTLSLIYTQAERCKLTLCNESAATMNVVIQNQTYETSINRGEFEKIVTPLLLRLRYPIERALRDASLNPNDLDAVILIGGATRMPLVKSVISKMFGRMPYANINPDETVALGAAIQVALKERNKALEEVILTDVCPYSLGTSVVQEFGDGKSESGYFFPIIERNTPIPVSKVERLYTVKDKQQFITIDVYQGENRRVVNNLKLGELKIKIPPAPAGNESVDIRYTYDINGILEVEVISTSTGEKKRTIIQQNAGNLTDAEIEKRLLELRDIKIHPRDREENRLLLAKCERLYEELLGDERKKISILLQQFESVLTTQNDKKIKEASSILKEHIESMERWANR | not soluble
12 | MAIIKRSAATDNPNIEILSTPEQIDVLSAEALMEALQGDDLEQILRAIHQLEAADSVEFQQHQAALFTLLDRDTEQNPCSDAVFSLLAIRNNDEITTRLIPLLDSEAPYLRNQAIEILQHSPQQLERHIQDLLNHQDPDVRIFAIDIIGLLPHQSVPEWLMQVLQHEEHINVIGTAIDRVAQLSDPNFSTILGEVKQRFSHVPYLVFACDVAIKRLNT | not soluble
13 | MAIINGSQYIERVDNLQSNVWINGERVVGKLSEHPAFAGAIRSQARLYDAQHDPTKQPVLTFRTSTGELAGAAFLRPATKEDLEHRRLAFQEWARLTAGMMGRSPDYMNHRRDGARLGR | not soluble
14 | MAIPGNMWIYDDGGALIKGGCDVADREFSIEFKGFHHNLSIPTDHATGKPTGTRQHSPMIIVKEFDYSSPYLYKAVATGQNLKSAEIKWYKISDAGQEVEYFNMLLEGVRIVSISPTMASPEDKNNNHLESVELRYEKITWKHCDGNIIFTDAWNERQTA | not soluble
15 | MAISSRNTLLAALAFIAFQAQAVNVTVAYQTSAEPAKVAQADNTFAKESGATVDWRKFDSGASIVRALASGDVQIGNLGSSPLAVAASQQVPIEVFLLASKLGNSEALVVKKTISKPEDLIGKRIAVPFISTTHYSLLAALKHWGIKPGQVEIVNLQPPAIIAAWQRGDIDGAYVWAPAVNALEKDGKVLTDSEQVGQWGAPTLDVWVVRKDFAEKHPEVVKAFAKSAIDAQQPYIANPDVWLKQPENISKLARLSGVPEGDVPGLVKGNTYLTPQQQTAELTGPVNKAIIDTAQFLKEQGKVPAVANDYSQYVTSRFVQ | soluble
16 | MAISSVGFACRSFSPVRTLQSHCLWKIRFNTVAAAIETMDESDGFATDSDRQDKVSDEPRDREWKQLNSKDLGLSSSMIAKSTRKVLNGLKSKGHDVYLVGGCVRDLILKRTPKDFDILTSAELREVSSFSTSAQNSSRNTRTECKESSGSDGDEDCIRLNNCLQRDFTINGLMFDPYAKVVYDYLGGMEDIRKAKVRTVIHAGTSFHQDCARILRAIRIAARLGFRMSKETAHFIKNLSLLVQRLDKGRILMEMNYMLAYGSAEASLRLLWKFGILEILLPIQAAYLARSGFRRRDKRTNMLLSLFANLDKLLAPDRPCHSSLWIAILAFHKALADKPRSPIVVAAFSLAVHNCGDILEAVEITKKITRPHDKSFFELVEPEENLDFQTLLDEVMDLDASIEDALNQMTDAYFISKAMSAYPQAPYSDLVFIPLQLYLRAGRIFDCVKNEETRIGFEAKQGSKIEYGSLNSGYFPEIRHVFARVVFDTVFPLNLSQEL | soluble
17 | MAITEFDTSLPSIRQLQNLIKQAAPVEIKLVTGDAITGRVLWQDPTCVCIADENSRQTTIWKQAIAYLQPKG | soluble
18 | MAITVKGLTNKLTRTQRRIAVVEFIFSLLFFLPKEAEVIQADFLEYDTKERQLNEWQKLIVKAFSENIFSFQKKIEEQQLKNQLEIQTKYNKISGKKIDLLTTAVVLCALSEQKAHNTDKPLLISEALLIMDHYSQGAEKKQTHALLDKLL | soluble
19 | MAKAAAGKKASPVKRVKKGGKAKDPNAPKRAMSAFFFWMQENRERIKKPGMGVADVAKAAGVEWGKLTDKSRWEKKAADDKKRYEVDIANYKKSQ | soluble
20 | MAKAGGITNAVNVGIAVQADWENREFISHISLNVRRLFEFLVQFGKPHSLTYFSVLGFEFN | not soluble
21 | MAKAPDVVDLLALAVERGASDLVITVGLPPMLKIDGEFHPTEYEPLTPQETRRLMYALMDEKQQRIFEEEKELDFSFSLPGKGRYRVNVFLQRGSVGGVLRVVPSAVKSFEELGLPKNIAEIAMSPRGLVLVTGPTGSGKSTTLASMIDYINERKACHIVTIEDPIEFFHKHKRAIVNQREIGSDTKSFHKALRSVLRQAPDVILVGEMRDYETIAAAITAAETGHLVMGTLHTNSAPETIDRIVDVFPENQQEQVRVQLSNNLVAVLTQQLLPKAFGGGRVLAYELMIATPAVRALIREGKTHQLRSVIQTGGQYGMITMDACLADLYRRKLITYEMGLARAVDPKEFMRLAGAPEGARR | soluble
22 | MAKIYNAPKPKYSGWEWFKFIAIRTVFPPVLLWDLIKIGANKLLGEWVSGLVLPAQNENFDDLAISDDTVSNYNEDDLICEKHDVITHDGAHLDTFEVRHRSQESIDPKYQKYIINLVGNGMCYEHIIDDIKEDSKALKANVIGFNLRGVGQSTGKAKSSEDLVADGIAQVQRLLDQGVSPQNITLKGHSLGAGVASLVAQHFHQLGQPINLFNSRSFSTITNFLVGHMRLERDEIGRAIGHKDSTVGTILGWLAKPFIKFGVALAKWEINAGSAFKSVPEAYKDYIVVRSRKEIRGERIDDAVIPHYASIHKELASERHKKKAEIDEEIANLDDIIRKADPLAKPGLANARDALVQAREKIKSDRKMETDVQYANGHNSDWNALHNRSGKSAQTFFREFVQRTEADHAVKSIPEIN | not soluble
